In patent US9713645B2, “Short interference RNA gene delivery system for systemic circulation” (INDUSTRY-UNIVERSITY COOPERATION FOUNDATION HANYANG …, priority 2012, dated 2017):

Key:
cells = test: Intracellular transfection efficiency of D-R9 structures complexed with luciferase DNA; type: cell-based; conditions: complexes with luciferase DNA, charge ratio 1:5; FIG. 4
Method: In the PEG-R9 structure, PEG was attached to C-(D-R9)-C. To confirm whether the C-(D-R9)-C structure was optimum, the C-(D-R9)-C structure was compared with G-(D-R9)-G, G-(D-R9)-C, and C-(D-R9)-G structures. Each of the G-(D-R9)-G, G-(D-R9)-C, C-(D-R9)-G, and C-(D-R9)-C delivery systems formed complexes with luciferase DNA in a charge ratio of 1:5. The intracellular transfection efficiencies of the complexes into cells were evaluated.

SCC7 cells [1] = test: Luciferase assay for gene expression efficiency; type: cell-based; conditions: plasmid luciferase 4 μg, charge ratio 12, 48 h, FIG. 6
Method: In this example, luciferase gene expression was measured using a luciferase assay kit and cell viability was analyzed by MTT assay.
A luciferase assay kit was purchased from Promega (USA). A DC protein assay kit and a bovine serum albumin standard were purchased from Bio-Rad Laboratories (USA). SCC7 cells were seeded onto a 24-well plate at 2×10^4 cells/well. 24 h after seeding, the cells were transfected with plasmid luciferase (4 μg)/PEG-R9 complexes (charge ratio 12).
PEI complexes in a charge ratio of 8 were used as control. After 48-h incubation, the cells was washed with PBS and treated with 150 μl of a 1× cell lysis buffer reagent for 20 min. The cell lysate was obtained by scrapping, transferred to a 1.5 ml microtube, and centrifuged at 13,000 rpm for 3 min. The luminescence values of the cell lysate were measured using a 96-well plate photometer (Berthold Detection Systems, Germany) with a 20 s integration time and were expressed as relative luminescence units (RLU) per mg of cell protein.
Proteins were determined with the DC protein assay kit using the bovine serum albumin standard. Based on the above procedure, PEG500 and PEG1000 were compared to find which one would be most optimal.

SCC7 cells [2] = test: MTT assay for cell viability; type: cell-based; conditions: FIG. 6
Method: Cell viability was measured by MTT [3-(4,5-dimethylthiazol-2-yl)-2,5-diphenyltetrazolium bromide] assay.
SCC7 cells were incubated in a 24-well plate and treated with R9, PEG-R9 complexes, and PEI complexes in the specified charge ratios. 48 h after transfection, 50 μl of MTT reagent and 500 μl of a medium were added to each well, followed by culture at 37° C. for 3 h. After removal of the culture media, 500 μl of dimethyl sulfoxide (DMSO) was added to each well, followed by culture at room temperature for 20 min. The absorbance was measured at 570 nm.

[3] = Sizes and zeta potentials of siVEGF conjugates with different delivery systems; type: physicochemical; conditions: FIG. 7
Method: siVEGF was conjugated with different kinds of delivery systems. The sizes and zeta potentials of the conjugates were analyzed to find which delivery system would be optimal for siRNA delivery. A group of cys-R9-cys, PEG-R9, and PEG-cys-R9-cys delivery systems and a group of PEG-cys-R9-cys, PEG-TAT, and PEG-cys-TAT-cys delivery systems were used, and their mean diameters were measured and compared.

Q: Which intracellular transfection efficiency (cells) does the source give for Cys-(D-R9)-Cys [C-(D-R9)-C] here?
A: high transfection efficiencies

Q: Which “intracellular gene delivery efficiency by luciferase assay” value (SCC7 cells [1]) does the source give for PEG-Cys-(D-R9)-Cys [PEG-R9] here?
A: efficiently deliver the gene into the cells

Q: And the “cytotoxicity (in words)” value (SCC7 cells [2]; 48 h after transfection)?
A: much lower than the other gene delivery systems

Q: What about the cell viability (SCC7 cells [2]) of the same substance?
A: at least 95%

Q: What about the “particle size compared with the PEG-unbound delivery system” value [3] of the same substance?
A: smaller
